Reference: US20250136677A1 (ZOETIS SERVICES, published 2025)
Where a chain is given by its changes, count along the chain named. Read-outs that look alike come from different tables or passages of the source.

B1: Feline 11E12 1.2 (antibody, V domains shown)
VH: QVLLVQSGAEVKKPGASVKIFCKASGYSFTYYDINWLRQAPEQGLEWMGWIFPGDGGTKYNETFKGRLTLTADTSTNTVYMELSSLRSADTAMYYCARGGTSVIRDAMDYWGQGALVTVSS
VL: EVVLTQSSAFLSRTLKEKATITCRASESVDNYGISFMHWYQQKPNQAPKLLVKRASNLESGAPSRFSGSGSGTDFTLTISSPEPEDAATYYCQQSNKDPLTFGQGT
notes: Feline heavy and kappa constant regions; also called felinized 11E12 1.2
B2: mouse:feline 11E12 chimera (antibody)
heavy: QVQLQQSGAELVKPGASVKLSCKASGYTFKYYDINWVRQRPEQGLEWIGWIFPGDGGTKYNETFKGKATLTTDKSSSTAYMQLSRLTSEDSAVYFCARGGTSVIRDAMDYWGQGTSVTVSSASTTAPSVFPLAPSCGTTSGATVALACLVLGYFPEPVTVSWNSGALTSGVHTFPAVLQASGLYSLSSMVTVPSSRWLSDTFTCNVAHPPSNTKVDKTVRKTDHPPGPKPCDCPKCPPPEAAGAPSIFIFPPKPKDTLSISRTPEVTCLVVDLGPDDSDVQITWFVDNTQVYTAKTSPREEQFNSTYRVVSVLPILHQDWLKGKEFKCKVNSKSLPSPIERTISKAKGQPHEPQVYVLPPAQEELSRNKVSVTCLIKSFHPPDIAVEWEITGQPEPENNYRTTPPQLDSDGTYFVYSKLSVDRSHWQRGNTYTCSVSHEALHSHHTQKSLTQSPGK
light: DIVLTQSPASLAVSLGQRATISCRASESVDNYGISFMHWYQQKPGQPPKLLIYRASNLESGIPARFSGSGSRTDFTLTINPVETDDVATYYCQQSNKDPLTFGAGTKLELKRSDAQPSVFLFQPSLDELHTGSASIVCILNDFYPKEVNVKWKVDGVVQNKGIQESTTEQNSKDSTYSLSSTLTMSSTEYQSHEKFSCEVTHKSLASTLVKSFQRSECQRE
notes: Mouse variable regions on feline IgG constant regions; made in HEK 293 cells
B3: ZTS-361 (antibody)
heavy: QVLLVQSGAEVRTPGASVKIFCKASGYSFTSYTIHWLRQAPAQGLEWMGNINPTSGYTENNQRFKDRLTLTADTSTNTAYMELSSLRSADTAMYYCARWGFKYDGEWSFDVWGAGTTVTVSSASTTAPSVFPLAPSCGTTSGATVALACLVLGYFPEPVTVSWNSGALTSGVHTFPAVLQASGLYSLSSMVTVPSSRWLSDTFTCNVAHPPSNTKVDKTVRKTDHPPGPKPCDCPKCPPPEAAGAPSIFIFPPKPKDTLSISRTPEVTCLVVDLGPDDSDVQITWFVDNTQVYTAKTSPREEQFNSTYRVVSVLPILHQDWLKGKEFKCKVNSKSLPSPIERTISKAKGQPHEPQVYVLPPAQEELSRNKVSVTCLIKSFHPPDIAVEWEITGQPEPENNYRTTPPQLDSDGTYFVYSKLSVDRSHWQRGNTYTCSVSHEALHSHHTQKSLTQSPGK
light: EIQMTQSPSSLSASPGDRVTITCRASQGISIWLSWYQQKPGNIPKVLINKASNLHIGVPSRFSGSGSGTDFTLTISSLEPEDAATYYCLQSQTYPLTFGGGTKLEIKRSDAQPSVFLFQPSLDELHTGSASIVCILNDFYPKEVNVKWKVDGVVQNKGIQESTTEQNSKDSTYSLSSTLTMSSTEYQSHEKFSCEVTHKSLASTLVKSFQRSECQRE
B4: ZTS-1505 (antibody)
heavy: B3 heavy
light: EIQMTQSPSSLSASPGDRVTITCRASQGISIWLSWYQQKPGNIPKVLINKASNLHIGVPSRFSGSGSGTDFTLTISSLEPEDAATYYCLQSQTYPLTFGGGTKLEIKRSDAQPSVFLFQPSLDELHTGSASIVCILNDFYPKEVNVKWKVDGVVQNKGIQESTTEQNSKDSTYSLSSTLTMSSTEYQSHEKFSCEVTHKSLASTLVKSFQRSEC

Assays:
[1] = molecular target: T1, wildtype feline IL-31 protein (Feline_IL31_wildtype) (feline); experiment: cell-based or functional assay
T1 chain: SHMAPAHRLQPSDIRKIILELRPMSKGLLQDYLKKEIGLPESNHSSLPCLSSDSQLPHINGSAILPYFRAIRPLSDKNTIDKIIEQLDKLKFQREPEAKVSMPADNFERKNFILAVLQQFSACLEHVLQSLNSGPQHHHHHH

[2] = molecular target: T1, wildtype feline IL-31 protein …; experiment: SPR (Biacore), IL-31 on chip
Protocol: (§1) The affinity with which candidate mAbs bind canine and feline IL-31 was determined using surface plasmon resonance (SPR) on a Biacore system (Biocore Life Sciences (GE Healthcare), Uppsala, Sweden). To avoid affinity differences associated with differential surface preparation that can occur when immobilizing antibodies to surfaces; a strategy was employed where IL-31 was directly conjugated to the surface. Immobilization was obtained by amine coupling 5 μg/mL IL-31 using N-hydroxysuccinimide (NHS)/1-Ethyl-3-(3-dimethylaminopropyl) carbodiimide (EDC) chemistry. Chips were quenched with ethanolamine and the affinity with which all candidate mAbs bound to the immobilized IL-31 was evaluated. All curves were fit to a 1:1 model. […] Results for affinity measurements are described herein.
FIG. 2 details the affinity of antibodies with CDRs derived from mouse origin using biacore. […] These observations confirm the correct sequence for both mouse antibodies and indicate conversion to the chimeric form results in antibodies with equivalent or higher affinity when compared to the mouse parent with the exception of the mouse:feline 15H05 chimera which lost some affinity to both IL-31 species as a result of its conversion to the chimeric form. […]

[3] = molecular target: T2, canine IL-31 protein (Canine_IL31) (canine); experiment: SPR (Biacore), IL-31 on chip, 1:1 fit
T2 chain: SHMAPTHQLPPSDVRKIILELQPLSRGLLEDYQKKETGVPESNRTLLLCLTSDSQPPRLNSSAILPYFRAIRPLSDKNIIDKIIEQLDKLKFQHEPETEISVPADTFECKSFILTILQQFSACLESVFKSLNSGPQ

[4] = molecular target: T1, wildtype feline IL-31 protein …; experiment: SPR (Biacore), IL-31 on chip, 1:1 fit
Summary of the method: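 IL-31 was amine-coupled (NHS/EDC) to the chip at 5 μg/mL and quenched with ethanolamine, and candidate mAbs were flowed over it as analytes. Binding curves were fitted to a 1:1 model.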

[5] = molecular target: T3, mutant feline IL-31 11E12 protein (Feline_IL31_11E12_mutant) (feline); experiment: indirect ELISA, feline IL-31 11E12 mutant coated
T3 construct: also called feline 11E12 mutant; 11E12 IL-31 mutant
T3 chain: T1 chain with D81A, I84A
Excerpt: To determine the impact of mAbs 11E12 and 15H05 ability to bind these mutant forms of feline IL-31, an indirect ELISA was run using the mutants directly coated on to an immunoassay plate. […] When mutant 11E12 is used as a capture protein, binding of mAb 11E12 is highly attenuated and binding of mAb 15H05 is partially attenuated. […] The minor attenuation of mAb 15H05s binding to the 11E12 mutant is likely due to translational effects of the mutations from movement of the two front helices effecting the 15H05 binding site. […] Unlike the 11E12 mutant, the changes in the random coil recognized by mAb 15H05 (mutant 15H05) had no impact on mAb 11E12 binding further supporting the distinction between the two epitopes (FIG. 6C).

[6] = molecular target: T2, canine IL-31 protein (Canine_IL31)
[7] = molecular target: T1, wildtype feline IL-31 protein …; experiment: cell-based or functional assay
[8] = molecular target: T2, canine IL-31 protein (Canine_IL31); experiment: cell-based or functional assay
[9] = molecular target: T2, canine IL-31 protein (Canine_IL31); experiment: SPR (Biacore), IL-31 protein as surface capture
[10] = molecular target: T4, mutant feline IL-31 15H05 protein (Feline_IL31_15H05_mutant) (feline); experiment: Biacore, IL-31 protein as surface capture
T4 construct: also called feline 15H05 mutant; 15H05 IL-31 mutant
T4 chain: T1 chain with P103A, D105A
Protocol: as §1
(§2) Table 1 below describes the results for biacore analysis using multiple species of IL-31 protein as a surface capture.

[11] = molecular target: T1, wildtype feline IL-31 protein …; experiment: SPR (Biacore), IL-31 protein as surface capture
Protocol: as §1, §2

[12] = molecular target: T3, mutant feline IL-31 11E12 protein …; experiment: SPR (Biacore), IL-31 protein as surface capture
Protocol: as §1, §2

[13] = molecular target: T5, equine IL-31 protein (Equine_IL31) (equine); experiment: SPR (Biacore), IL-31 protein as surface capture
T5 construct: Recombinant equine IL-31
T5 chain: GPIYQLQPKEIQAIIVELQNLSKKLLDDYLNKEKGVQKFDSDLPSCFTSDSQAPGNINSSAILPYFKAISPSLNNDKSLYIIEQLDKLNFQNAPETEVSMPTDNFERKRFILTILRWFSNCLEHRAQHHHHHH
Protocol: as §1, §2

[14] = molecular target: T1, wildtype feline IL-31 protein …; experiment: cell-based or functional assay
[15] = molecular target: T1, wildtype feline IL-31 protein …; experiment: cell-based or functional assay
[16] = molecular target: T1, wildtype feline IL-31 protein …; experiment: Biacore, feline IL-31 chip, mAb 100 nM, share of points within parent mean +/-3 SD; design: key: % of mutant data points within parent mAb mean ±3 SD
Excerpt: (§3) The mean response unit of four replicates of the parent mAb+/−3 standard deviations was used to generate parameters to define a threshold of response units comprising both the on- and off-rates antibody binding (FIG. 22). The percentage of data points for each mutant fell within this threshold was then used to define a “% similarity score” (FIG. 23).

[17] = molecular target: T1, wildtype feline IL-31 protein …; experiment: as above; design: key: % of mutant data points within parent mAb mean ±3 SD
Excerpt: The region of an antibody responsible for antigen recognition represents the paratope. A paratope is created by a combination of amino acids in the complementarity determining regions (CDRs) of both the heavy and light chain variable regions. The binding between antibody and antigen is often mediated by side chains of CDR residues with side chains or carbohydrate moieties of the antigen. To help define critical side chains involved in antibody recognition alanine scanning mutagenesis was performed on each CDR residue in both the heavy and light chain. These mutants were then individually tested for the ability to bind feline IL-31 using the biacore and evaluated for inhibition of IL-31-mediated signaling in the FCWF-4 cell based assay.
as §3

Binder | IC50, inhibition of feline IL-31-induced STAT3 phosphorylation, canine DH82 cells [1] [µg/mL] | IC50, inhibition of feline IL-31-induced STAT3 phosphorylation, feline FCWF4 cells [1] [µg/mL] | Kd [4] [nM] | koff [4] [s⁻¹] | kon [4] [M⁻¹ s⁻¹] | Inhibition of IL-31 induced pSTAT3 IC50 (µg/ml), Feline IL-31 on Feline FCWF-4 cells [7] [µg/ml] | Inhibition of IL-31 induced pSTAT3 IC50 (µg/ml), Canine IL-31 on Canine DH82 cells [8] [µg/ml] | Kd [9] [pM] | binding result [10] | Kd [11] [nM] | Kd [12] [nM] | Kd [13] [nM] | further results
B1 | > 100 | > 100 | – | – | – | – | – | – | – | – | – | – | binding result [2]: no binding
B2 | 4.4 | 3.45 | 0.13 | 5.06e-05 | 388000 | – | – | – | – | – | – | – | Kd [3]: 0.127 pM; koff [3]: 8.7e-08 s⁻¹; kon [3]: 684000 M⁻¹ s⁻¹; binding result [5]: binds
B3 | – | – | 0.474 | 2.18e-05 | 46000 | 8.85 | 23 | 2.41 | no binding | 0.625 | 17.2 | 0.625 | IC50, inhibition of canine IL-31-induced STAT3 phosphorylation, feline FCWF4 cells [6]: 38.8 µg/mL
B4 | – | – | – | – | – | 4.53 | 21.8 | 1.83 | no binding | 0.575 | 19.5 | 0.575 | % Inhibition Relative to Parent (pSTAT, FCWF-4 cells) [14]: 100%; % Inhibition Relative to Parent (pSTAT, FCWF-4 cells) [15]: 100%; Binding Similarity score [16]: 97; Binding Similarity score [17]: 97
